Test results reported in paper PMC4742757, “The Prodomain-bound Form of Bone Morphogenetic Protein 10 Is Biologically Active on Endothelial Cells*” (The Journal of Biological Chemistry, 2015).

Legend:
[1] = molecular target: the molecule itself; experiment: non-reducing SDS-PAGE; peak gel filtration fraction of purified pBMP10 on non-reducing SDS-PAGE; Coomassie stain and anti-BMP10 immunoblot
[2] = molecular target: T1, BMPR-II extracellular domain (ECD), human, residues 27-150 (human, UniProt Q13873-1 27-150); experiment: native gel or EMSA; 10% native PAGE of purified pBMP10 complex alone or with BMPR-II ECD (molar ratio pBMP10:BMPR-II ECD 1:1, 1:2, 1:4); bands excised and immunoblotted for BMP10 GFD and prodomain; conditions: both partners purified
T1 construct: Bone morphogenetic protein receptor type II, human, extracellular domain, residues 27-150 (NM_001204); Cloned in pET39b as DsbA-(His)6-TEV site-BMPR2 ECD; also called BMPR-II ECD; BMPR2 ECD; source: E. coli Rosetta DE3, periplasmic extract, purified (Ni-NTA, TEV cleavage, second Ni-NTA flowthrough, S75 gel filtration); not shown: DsbA, N-terminal, cleaved; His6, N-terminal, cleaved
T1 sequence (looked up): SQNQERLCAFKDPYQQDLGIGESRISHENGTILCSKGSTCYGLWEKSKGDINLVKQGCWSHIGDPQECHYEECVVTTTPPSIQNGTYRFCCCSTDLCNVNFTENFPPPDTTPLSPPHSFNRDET

B1: BMP10 growth factor domain (GFD), recombinant human, from the in-house pBMP10 complex (ligand, UniProt O95393 317-424, looked up)
chain: NAKGNYCKRTPLYIDFKEIGWDSWIIAPPGYEAYECRGVCNYPLAEHLTPTKHAIIQALVHLKNSQKASKACCVPTKLEPISILYLDKGVVTYKFKYEGMAVSECGCR
notes: Bone morphogenetic protein 10, human; the mature growth factor domain cut from full-length proBMP10 by furin; Expressed from full-length proBMP10 cDNA, co-transfected with furin; Covalently linked (D-form) and non-covalently linked (M-form) dimers are both in the preparation; also called BMP10 GFD; mature BMP10; source: HEK EBNA cells transfected with proBMP10 and furin in pCEP4; purified from …
[1]
  binding result: binds
[2]
  binding result: binds
